# Results reported in patent publication US20230312745A1.
# Legend:
# [1] = target: Ly6C on mouse blood mononuclear cells (mouse) (UniProt P0CW02); experiment: flow cytometry contour plot of live mononuclear-gated blood cells 1 h after injection into DSS treated mice; upper left quadrant 9.7; Mock panel 14.6 and 0.30
# [2] = target: LFA-1 on the mouse T cell lymphoma cell line TK1 (mouse) (UniProt P24063); experiment: flow cytometry, control: secondary scFv on TK1 cells without RIg; left gate 97.9; unstain 1.87; target taken as the LFA-1 carried by TK1 cells
# [3] = target: anti-CD34 antibody (clone mec14.7) RIg, self-assembled on ASSET LNPs (TsiLNPs); experiment: RIg taken up by ASSET LNPs, acrylamide gel against free RIg dilutions / western blot after 1 MDa dialysis
# [4] = target: Rat IgG2a (RIg), clone FIB504 (BioXcell); experiment: ELISA on coated RIg, ASSET LNPs after dialysis, pre-incubated with 0.2% Triton X-100
# [5] = target: Rat IgG2a (RIg), clone FIB504 (BioXcell); experiment: ELISA, plate coated with RIg, serial dilutions of ASSET, anti-His detection
# UniProt P0CW02, sequence (P0CW02 27-109): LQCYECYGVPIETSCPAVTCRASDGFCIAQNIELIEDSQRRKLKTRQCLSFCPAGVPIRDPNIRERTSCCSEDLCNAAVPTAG
molecule,measurement,setting,value
"isotype control RIg (BioXcell), self-assembled on ASSET LNPs (TsiLNPs) (antibody)","number in the upper right quadrant (Ly6C high, siCy5 high)",[1],0.53
"Secondary scFv (scFv of clone RG7/1.30, without lipidation motif) (scFv) scFv: HHHHHHEVQLLQSGPELVKPGASVKIPCKASGYTFTDYNMDWVKQSHEKSLEWIGYINPYSGDTIYNHKFKDKATLTVYKSSNIAYMELRSLTSEDTAVYYCARGGYDYGDHWGQGTTLTVSSGSAGGGGSGGGGSGGGGSDIKMTQSPSSMYASLGERVTITCKASQDINSYLSWFQQKPGKSPKTLIYRANRLVDGVPSRFSGSGSGQDYSLTISSLEYEDMGIYYCLQDDEFPRTFGGGTKLEIK",number in the right (positive) gate of the histogram,[2],2.06
"ASSET (Anchored Secondary scFv Enabling Targeting) (scFv, part only; not given: mCherry fusion partner, part only, N-terminal cysteine of the CDQSSS NlpA motif is lipidated (bacterial lipidation)) scFv, part: CDQSSSEVQLLQSGPELVKPGASVKIPCKASGYTFTDYNMDWVKQSHEKSLEWIGYINPYSGDTIYNHKFKDKATLTVYKSSNIAYMELRSLTSEDTAVYYCARGGYDYGDHWGQGTTLTVSSGSAGGGGSGGGGSGGGGSDIKMTQSPSSMYASLGERVTITCKASQDINSYLSWFQQKPGKSPKTLIYRANRLVDGVPSRFSGSGSGQDYSLTISSLEYEDMGIYYCLQDDEFPRTFGGGTKLEIKHHHHHH",IgG incorporation,[3],98.3%
same,functionality maintained after incorporation into LNPs,[4],95.8%
same,Kd,[5],10 nM
